Reference: patent US20090081197A1, “Methods for Selection of Melanocortin Receptor-Specific Agents for Treatment of Obesity” (Palatin Technologies, Inc., priority 2007, published 2009)

Columns and labels:
[1] = biological target: human melanocortin 4 receptor (human) (UniProt P32245); experiment: cell-based or functional assay
[2] = biological target: MC1-R of B-16 mouse melanoma cells (mouse) (UniProt Q01727); experiment: radioligand competition, [I125]-NDP-α-MSH, B-16 membranes
[3] = biological target: human melanocortin 3 receptor (human) (UniProt P41968); experiment: radioligand competition, [I125]-NDP-α-MSH, hMC3-R membranes
human melanocortin 3 receptor (human), sequence (P41968 whole entry): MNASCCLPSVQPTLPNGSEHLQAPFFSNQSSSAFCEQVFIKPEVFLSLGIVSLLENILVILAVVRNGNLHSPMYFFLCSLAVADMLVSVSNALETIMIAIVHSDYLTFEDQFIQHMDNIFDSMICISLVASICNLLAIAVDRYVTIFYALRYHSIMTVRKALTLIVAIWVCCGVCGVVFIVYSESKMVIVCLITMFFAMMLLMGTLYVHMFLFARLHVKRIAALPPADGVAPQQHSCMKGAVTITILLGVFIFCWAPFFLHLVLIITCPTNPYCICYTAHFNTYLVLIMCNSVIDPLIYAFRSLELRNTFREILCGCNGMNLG

[4] = biological target: human melanocortin 4 receptor (human) (UniProt P32245); experiment: radioligand competition, [I125]-NDP-α-MSH, hMC4-R membranes
[5] = biological target: human melanocortin 5 receptor (human) (UniProt P33032); experiment: radioligand competition, [I125]-NDP-α-MSH, hMC5-R membranes
human melanocortin 5 receptor (human), sequence (P33032 whole entry): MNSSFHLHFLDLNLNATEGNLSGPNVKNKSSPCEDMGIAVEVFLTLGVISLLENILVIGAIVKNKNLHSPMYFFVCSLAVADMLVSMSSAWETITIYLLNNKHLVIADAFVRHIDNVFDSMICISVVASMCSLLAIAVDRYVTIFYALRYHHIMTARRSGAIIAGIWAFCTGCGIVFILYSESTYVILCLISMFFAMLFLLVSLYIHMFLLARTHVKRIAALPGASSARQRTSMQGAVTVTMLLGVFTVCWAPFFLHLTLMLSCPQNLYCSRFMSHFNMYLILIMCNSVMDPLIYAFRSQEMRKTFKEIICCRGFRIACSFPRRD

[6] = biological target: human MC1-R (human) (UniProt Q01726); experiment: radioligand competition, NDP-α-MSH, human MC1-R, normal system
human MC1-R (human), sequence (Q01726 whole entry): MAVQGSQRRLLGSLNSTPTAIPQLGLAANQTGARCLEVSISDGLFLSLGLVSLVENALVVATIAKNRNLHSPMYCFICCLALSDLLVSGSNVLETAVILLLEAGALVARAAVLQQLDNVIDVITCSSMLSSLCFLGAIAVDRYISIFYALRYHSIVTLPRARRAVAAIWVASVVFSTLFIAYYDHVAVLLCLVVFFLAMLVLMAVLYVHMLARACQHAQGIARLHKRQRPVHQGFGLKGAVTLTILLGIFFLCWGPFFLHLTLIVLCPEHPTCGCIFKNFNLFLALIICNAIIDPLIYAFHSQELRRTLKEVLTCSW

[7] = biological target: MC1-R of B-16 mouse melanoma cells (mouse) (UniProt Q01727); experiment: radioligand competition, [I125]-NDP-α-MSH, B-16 membranes, 1 µM compound
[8] = biological target: human melanocortin 3 receptor (human) (UniProt P41968); experiment: radioligand competition, [I125]-NDP-α-MSH, hMC3-R membranes, 1 µM compound
[9] = biological target: human melanocortin 4 receptor (human) (UniProt P32245); experiment: radioligand competition, [I125]-NDP-α-MSH, hMC4-R membranes, 1 µM compound
[10] = biological target: human melanocortin 5 receptor (human) (UniProt P33032); experiment: radioligand competition, [I125]-NDP-α-MSH, hMC5-R membranes, 1 µM compound

human melanocortin 4 receptor (human), sequence (P32245 whole entry): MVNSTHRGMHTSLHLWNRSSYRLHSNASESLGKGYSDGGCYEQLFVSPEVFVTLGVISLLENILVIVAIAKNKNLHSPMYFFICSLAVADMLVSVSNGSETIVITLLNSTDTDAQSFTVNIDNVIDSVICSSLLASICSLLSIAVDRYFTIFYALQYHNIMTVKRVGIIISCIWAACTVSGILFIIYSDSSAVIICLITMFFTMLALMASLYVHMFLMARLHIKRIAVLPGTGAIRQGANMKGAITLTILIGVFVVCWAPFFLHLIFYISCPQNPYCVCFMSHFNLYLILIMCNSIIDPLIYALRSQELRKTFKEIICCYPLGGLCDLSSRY
MC1-R of B-16 mouse melanoma cells (mouse), sequence (Q01727 whole entry): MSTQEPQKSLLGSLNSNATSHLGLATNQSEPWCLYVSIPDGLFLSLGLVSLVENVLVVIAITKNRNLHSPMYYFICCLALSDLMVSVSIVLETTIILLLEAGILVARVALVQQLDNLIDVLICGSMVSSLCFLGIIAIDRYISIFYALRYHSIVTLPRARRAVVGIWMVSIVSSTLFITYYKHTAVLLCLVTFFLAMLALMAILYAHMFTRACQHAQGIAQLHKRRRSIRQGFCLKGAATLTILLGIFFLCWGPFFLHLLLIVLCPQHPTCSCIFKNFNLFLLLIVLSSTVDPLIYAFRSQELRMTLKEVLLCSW

pA2 (antagonism of NDP-α-MSH-stimulated cAMP, Schild analysis), normal system [1]: 8.1 | Ki [2]: 0.2 nM | Ki [3]: 0.3 nM | Ki [4]: 0.02 nM | Ki [5]: 0.2 nM | Ki [6]: 0.25 nM | Inhibition at 1 µM (NDP-α-MSH) [7]: 102% | Inhibition at 1 µM (NDP-α-MSH) [8]: 98% | Inhibition at 1 µM (NDP-α-MSH) [9]: 100% | Inhibition at 1 µM (NDP-α-MSH) [10]: 100%
B1: Ac-Nle-cyclo(Asp-His-D-Nal 2-Arg-Nal 2-Lys)-OH (peptide)
peptide: XDHXRXK
modifications: N-terminal acetyl; Nle at 1 (X); D-Nal 2 at 4 (X); Nal 2 at 6 (X); cyclo(Asp 2 to Lys 7); free C-terminal acid
